This is an account of results in article PMC9426524.

Substrate in the data set: CC(=O)C=O
As to the kind of experiment: purified protein.

B1: (Homo sapiens) (protein)
chain: MASKRALVILAKGAEEMETVIPVDVMRRAGIKVTVAGLAGKDPVQCSRDVVICPDASLEDAKKEGPYDVVVLPGGNLGAQNLSESAAVKEILKEQENRKGLIAAICAGPTALLAHEIGFGSKVTTHPLAKDKMMNGGHYTYSENRVEKDGLILTSRGPGTSFEFALAIVEALNGKEVAAQVKAPLVLKD
Turning to B1, the Km was 340 ± 40 µM and the turnover number (kcat) turned out to be 0.126 ± 0.004 s⁻¹.
